This note sets out measurements from patent US20210317204A1 (ALMAC DISCOVERY, published 2021).

In general, Kd refers to the constant that tells how readily two partners part at equilibrium. For orientation: koff means the first-order rate constant of dissociation. The low end stands for slow dissociation, the high end for fast dissociation. Usually kon stands for the second-order rate constant of association. Read a high kon as fast association. In general, EC50 (read off the curve) refers to the concentration that produces a half-maximal response.

For assay [1], the target named is T1, human ROR1 extracellular domain-Fc fusion (human, UniProt Q01973 30-406).
T1 construct: extracellular domain; also called hROR1; ROR1-hFc
In words: SPR. A general note: Surface plasmon resonance follows binding to a sensor surface in real time, without labels.

For assay [2], the target named is T2, human ROR2 extracellular domain-Fc fusion (human, UniProt Q01974 34-403).
T2 construct: extracellular domain; also called hROR2; ROR2-hFc
Put plainly: SPR.

The target of assay [3] is T3, D3 VNAR.
T3 construct: shark VNAR domain; also called D3 WT; D3 monomer; not shown: C-terminal His6 or His6Myc tag (His6Myc in flow cytometry)
Put plainly: competition ELISA: D3 pre-incubated with the peptide (25% DMSO), residual binding to coated huROR1-Fc.

In assay [4] the target is T4, B1 VNAR (C-terminal His6 or His6Myc tag, not said which).
T4 construct: shark VNAR domain; also called VNAR B1; B1 monomer
In words: competition ELISA: B1 pre-incubated with the peptide, residual binding to coated huROR1-Fc. A general note: An ELISA detects its analyte on a solid surface through an enzyme-linked reagent.

Assay [5] concerns the target T5, D3-[G4S]5-D3 homodimer.
T5 construct: also called D3-D3; D3D3; not shown: C-terminal His6 or His6Myc tag (His6Myc in flow cytometry)
In words: competition ELISA: D3-D3 pre-incubated with the peptide (25% DMSO), residual binding to coated huROR1-Fc.

The target in assay [6] is T6, mouse ROR1 extracellular domain-Fc fusion (mouse, UniProt Q9Z139 30-406).
T6 construct: extracellular domain; also called mROR1; mouse ROR1-Fc
Put plainly: SPR, mROR1 on chip.

Assay [7] has as its target T7, rat ROR1 extracellular domain-Fc fusion (rat, UniProt D3ZZ97 30-406).
T7 construct: extracellular domain; also called rROR1
Put plainly: ELISA on coated rat ROR1-Fc.

The target in assay [8] is T2, human ROR2 extracellular domain-Fc …. In words: ELISA on coated human ROR2-Fc.
Assay [9] deals with T1, human ROR1 extracellular domain-Fc …. In words: SPR, ROR1-hFc on chip; E. coli.
Assay [10] has as its target T7, rat ROR1 extracellular domain-Fc fusion. Put plainly: SPR, rROR1 on chip.
The target of the next assay is T8, mouse serum albumin (mouse, UniProt P07724 25-608).
T8 construct: also called MSA
In words: SPR, albumin on chip.

In a further assay the target is T9, rat serum albumin (rat, UniProt P02770 25-608).
T9 construct: also called RSA
In words: SPR, albumin on chip.

Assay [11] concerns the target T2, human ROR2 extracellular domain-Fc …. Put plainly: SPR. The source holds these as a separate data set.
In assay [12] the target is T5, D3-[G4S]5-D3 homodimer. In words: competition ELISA: VNAR pre-incubated with peptide 5, residual binding to coated huROR1-Fc [continued].
Assay [13] concerns the target T3, D3 VNAR. The assay is described as above.
Assay [14] deals with T4, B1 VNAR (C-terminal His6 or His6Myc …). Described as above.
In assay [15] the target is T10, cynomolgus serum albumin (cynomolgus).
T10 construct: also called CSA; Cyano
Put plainly: SPR, CSA on chip, pH 7.4.

Assay [16] has as its target T10, cynomolgus serum albumin. Put plainly: SPR, CSA on chip, pH 5.5.

T4 sequence (chain, as listed by the source): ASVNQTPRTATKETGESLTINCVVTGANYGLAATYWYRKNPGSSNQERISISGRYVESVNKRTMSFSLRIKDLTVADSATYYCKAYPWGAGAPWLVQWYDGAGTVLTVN
T3 sequence (chain, as listed by the source): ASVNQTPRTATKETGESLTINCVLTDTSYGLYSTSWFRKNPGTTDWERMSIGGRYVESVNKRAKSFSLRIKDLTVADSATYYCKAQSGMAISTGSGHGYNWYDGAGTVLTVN
T10 sequence (A2V9Z4 25-608): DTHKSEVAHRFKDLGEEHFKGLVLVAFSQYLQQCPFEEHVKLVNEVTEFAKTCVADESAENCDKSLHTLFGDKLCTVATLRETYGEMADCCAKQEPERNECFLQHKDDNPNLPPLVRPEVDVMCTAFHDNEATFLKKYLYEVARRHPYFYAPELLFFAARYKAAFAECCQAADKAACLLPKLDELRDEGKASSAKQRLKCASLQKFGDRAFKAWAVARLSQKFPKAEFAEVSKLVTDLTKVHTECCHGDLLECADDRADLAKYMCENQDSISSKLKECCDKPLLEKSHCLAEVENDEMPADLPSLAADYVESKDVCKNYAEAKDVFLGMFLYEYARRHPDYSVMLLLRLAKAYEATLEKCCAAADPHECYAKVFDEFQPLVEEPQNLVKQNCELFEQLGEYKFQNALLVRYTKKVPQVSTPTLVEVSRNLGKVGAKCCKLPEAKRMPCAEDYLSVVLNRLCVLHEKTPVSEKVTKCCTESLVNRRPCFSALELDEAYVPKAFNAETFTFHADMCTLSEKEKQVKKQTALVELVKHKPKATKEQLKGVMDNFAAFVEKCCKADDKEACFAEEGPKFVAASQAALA
T6 sequence (Q9Z139 30-406): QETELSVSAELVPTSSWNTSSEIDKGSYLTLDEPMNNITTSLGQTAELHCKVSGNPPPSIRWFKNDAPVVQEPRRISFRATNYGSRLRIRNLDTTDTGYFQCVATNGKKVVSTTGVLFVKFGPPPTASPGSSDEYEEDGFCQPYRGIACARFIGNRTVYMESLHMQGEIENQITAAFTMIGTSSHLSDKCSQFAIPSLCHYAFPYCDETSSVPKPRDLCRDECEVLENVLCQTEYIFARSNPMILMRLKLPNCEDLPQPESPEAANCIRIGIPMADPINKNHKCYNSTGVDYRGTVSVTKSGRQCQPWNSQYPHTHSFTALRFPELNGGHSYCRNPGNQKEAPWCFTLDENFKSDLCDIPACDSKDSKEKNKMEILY
T5 sequence (chain, as listed by the source): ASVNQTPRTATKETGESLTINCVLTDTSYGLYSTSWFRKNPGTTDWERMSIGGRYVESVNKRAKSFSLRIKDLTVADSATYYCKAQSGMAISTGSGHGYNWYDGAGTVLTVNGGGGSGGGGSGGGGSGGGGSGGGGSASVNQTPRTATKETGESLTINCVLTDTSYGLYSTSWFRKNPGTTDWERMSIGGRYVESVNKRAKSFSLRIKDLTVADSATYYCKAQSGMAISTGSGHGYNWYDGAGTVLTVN
T9 sequence (P02770 25-608 limits assumed): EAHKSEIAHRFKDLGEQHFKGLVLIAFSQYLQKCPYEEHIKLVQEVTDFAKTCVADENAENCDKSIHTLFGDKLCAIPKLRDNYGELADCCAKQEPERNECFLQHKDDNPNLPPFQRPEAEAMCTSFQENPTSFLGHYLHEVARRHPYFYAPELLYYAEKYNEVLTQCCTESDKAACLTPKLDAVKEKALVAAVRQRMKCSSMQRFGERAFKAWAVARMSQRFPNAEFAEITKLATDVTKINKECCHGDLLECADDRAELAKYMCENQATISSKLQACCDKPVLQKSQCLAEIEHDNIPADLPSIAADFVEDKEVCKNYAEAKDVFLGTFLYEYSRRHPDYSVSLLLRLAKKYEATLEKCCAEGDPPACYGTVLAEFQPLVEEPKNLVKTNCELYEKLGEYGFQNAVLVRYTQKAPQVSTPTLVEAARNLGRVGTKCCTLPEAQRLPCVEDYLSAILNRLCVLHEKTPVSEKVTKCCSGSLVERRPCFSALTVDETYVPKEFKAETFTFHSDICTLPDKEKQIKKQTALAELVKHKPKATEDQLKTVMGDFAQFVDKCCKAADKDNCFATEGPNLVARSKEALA
T8 sequence (P07724 25-608 limits assumed): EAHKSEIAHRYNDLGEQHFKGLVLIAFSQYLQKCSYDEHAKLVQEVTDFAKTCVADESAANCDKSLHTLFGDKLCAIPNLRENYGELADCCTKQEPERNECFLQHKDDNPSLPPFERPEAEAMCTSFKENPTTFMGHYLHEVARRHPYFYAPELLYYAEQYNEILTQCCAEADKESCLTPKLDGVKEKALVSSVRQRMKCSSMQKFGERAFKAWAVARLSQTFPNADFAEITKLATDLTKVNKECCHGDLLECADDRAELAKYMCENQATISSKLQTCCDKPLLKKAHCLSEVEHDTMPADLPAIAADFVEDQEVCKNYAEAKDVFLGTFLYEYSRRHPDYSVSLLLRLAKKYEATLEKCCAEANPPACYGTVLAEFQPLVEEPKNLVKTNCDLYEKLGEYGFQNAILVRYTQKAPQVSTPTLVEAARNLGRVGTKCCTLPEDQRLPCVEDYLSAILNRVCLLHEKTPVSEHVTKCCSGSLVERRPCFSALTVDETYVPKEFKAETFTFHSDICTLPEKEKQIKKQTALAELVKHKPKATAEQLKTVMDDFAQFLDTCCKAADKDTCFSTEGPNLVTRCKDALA

B1: P3A1 VNAR with His6Myc tag (VNAR)
VNAR: TRVDQTPRTATKETGESLTINCVLTDTSYGLYSTSWFRKNPGTTDWERMSIGGRYVESVNKGAKSFSLRIKDLTVADSATYYCKAREARHPWLRQWYDGAGTVLTVNQ
notes: shark VNAR domain; also called P3A1 6xHis myc
For B1, in [1], the affinity, expressed as Kd, was 25.6 nM; the koff worked out at 0.025 s⁻¹; the kon was 980000 M⁻¹ s⁻¹. The binding result in [2] is given as “no binding”.
As for YMESLHMQGEIENQI (synthetic linear peptide) [ROR1 ECD Peptide 1], the binding result in the assay with D3 VNAR [3] is “no binding”; in assay [4], “no binding (tested: 10 uM)”; with D3-[G4S]5-D3 homodimer [5], “no binding”.
On to QCVATNGKEVVSSTGVLFVKFGPPPTASPGYSDEYE (synthetic linear peptide) [ROR1 ECD Peptide 4], for which the binding result with D3 VNAR [3] was “no binding”; in assay [4], “no binding (tested: 10 uM)”; with D3-[G4S]5-D3 homodimer [5] it was “no binding”.
As to CQPWNSQYPHTHTFTALRFP (synthetic linear peptide) [ROR1 ECD Peptide 3], the binding result with D3 VNAR [3] is on record as “no binding”; in assay [4] it was “no binding (tested: 10 uM)”; with D3-[G4S]5-D3 homodimer [5] it was “no binding”.

B2: P3A1 VNAR (C-terminal His6 or His6Myc tag, not said which) (VNAR, not shown: small tags and cut ends)
VNAR: TRVDQTPRTATKETGESLTINCVLTDTSYGLYSTSWFRKNPGTTDWERMSIGGRYVESVNKGAKSFSLRIKDLTVADSATYYCKAREARHPWLRQWYDGAGTVLTVN
notes: shark VNAR domain; also called P3A1 monomer
In assay [6], B2 registered a dissociation constant Kd of 14.3 nM, a koff of 0.0408 s⁻¹ and an on-rate constant (kon) of 2.95e+06 M⁻¹ s⁻¹. Further, in [7], the “EC50 (read off the curve)” value is around 0.3 µg/mL. Further, the binding result in assay [8] is recorded as “no binding (tested: 10 ug/ml)”. Also, in [9], the Kd was determined as 19.1 nM, the dissociation rate constant (koff) came out at 0.0442 s⁻¹ and the kon was found to be 2.47e+06 M⁻¹ s⁻¹. In assay [10], this molecule came in with a Kd of 17.7 nM, a dissociation rate constant (koff) of 0.045 s⁻¹ and a kon of 2.86e+06 M⁻¹ s⁻¹.

B3: P3A1 VNAR with 6xHis tag (VNAR, not shown: small tags and cut ends)
VNAR: TRVDQTPRTATKETGESLTINCVLTDTSYGLYSTSWFRKNPGTTDWERMSIGGRYVESVNKGAKSFSLRIKDLTVADSATYYCKAREARHPWLRQWYDGAGTVLTVN
notes: shark VNAR domain; also called P3A1 6xHis
In assay [1], B3 came in with a dissociation constant Kd of 7.8 nM, a koff of 0.0206 s⁻¹ and an on-rate (kon) of 2.92e+06 M⁻¹ s⁻¹. Also, in assay [2], the binding result is “no binding”.

B4: 2V control VNAR (VNAR, not shown: small tags and cut ends)
VNAR: TRVDQTPRTATKETGESLTINCVLTDTSYGLYSTSWFRKNPGTTDWERMSIGGRYVESVNKGAKSFSLRIKDLTVADSATYYCKAQSLAISTRSYWYDGAGTVLTVN
notes: control VNAR from a naive library, no known target; also called 2V monomer
Turning to B4, the binding result (in [6]; with mouse serum albumin; in the assay with rat serum albumin; in assay [10]; in assay [11]) was “no binding” throughout.
Turning to RSTIYGSRLRIRNLDTTDTGYFQ (also called ROR1 ECD Peptide 5) [peptide 5], the binding result (with D3-[G4S]5-D3 homodimer [12]; in the assay with D3 VNAR [13]; in [14]) was “no binding (tested: 1000 nM)” throughout.

B5: ROR1 ECD Peptide 2 (peptide)
peptide: RSTIYGSRLRINLDTTDTGYFQ
notes: synthetic linear peptide; insoluble in PBS, repeated in 25% DMSO
Regarding B5, the values for the binding result (in the assay with D3 VNAR [3]; in assay [4]; with D3-[G4S]5-D3 homodimer [5]) were “no binding”, “no binding (tested: 10 uM)” and “no binding”, respectively.

B6: BA11 humanised VNAR (VNAR)
VNAR: TRVDQSPSSLSASVGDRVTITCVLTDTSYPLYSTYWYRKNPGSSNKEQISISGRYSESVNKGTKSFTLTISSLQPEDSATYYCRAMSTNIWTGDGAGTKVEIK
With B6, the Kd with cynomolgus serum albumin [15] is 3.36 nM; with cynomolgus serum albumin [16], 1.11 nM.

B7: BA11-S-maleimide-peg-fluorescein (VNAR)
VNAR: TRVDQSPSSLSASVGDRVTITCVLTDTSYPLYSTYWYRKNPGSSNKEQISISGRYSESVNKGTKSFTLTISSLQPEDSATYYCRAMSTNIWTGDGAGTKVEIK
modifications: C-terminal thiol joined to maleimide-peg-fluorescein
notes: also called BA11-S-mal-Fl
In the case of B7, the dissociation constant (Kd) with cynomolgus serum albumin [15] came out at 2.3 nM; in the assay with cynomolgus serum albumin [16], 7.01 nM.

B8: BA11-oxime-fluorescein (VNAR)
VNAR: TRVDQSPSSLSASVGDRVTITCVLTDTSYPLYSTYWYRKNPGSSNKEQISISGRYSESVNKGTKSFTLTISSLQPEDSATYYCRAMSTNIWTGDGAGTKVEIK
modifications: C-terminal aminoxy joined by oxime to benzaldehyde-peg-fluorescein
Regarding B8, the results for the equilibrium dissociation constant (Kd) with cynomolgus serum albumin [15] and in the assay with cynomolgus serum albumin [16] were 1.75 nM and 5.54 nM, respectively.

B9: BA11-cys-maleimide-peg-fluorescein (VNAR)
VNAR: TRVDQSPSSLSASVGDRVTITCVLTDTSYPLYSTYWYRKNPGSSNKEQISISGRYSESVNKGTKSFTLTISSLQPEDSATYYCRAMSTNIWTGDGAGTKVEIK
modifications: C-terminal cysteine joined to maleimide-peg-fluorescein
notes: also called BA11-cys-mal-Fl
Regarding B9, the Kd in the assay with cynomolgus serum albumin [15] is 3.68 nM; with cynomolgus serum albumin [16], 8.21 nM.

B10: BA11 C-terminal thiol derivative (VNAR)
VNAR: TRVDQSPSSLSASVGDRVTITCVLTDTSYPLYSTYWYRKNPGSSNKEQISISGRYSESVNKGTKSFTLTISSLQPEDSATYYCRAMSTNIWTGDGAGTKVEIK
modifications: C-terminal thiol from cysteamine cleavage of the intein fusion
notes: also called BA11-SH
For the molecule B10, the dissociation constant (Kd) with cynomolgus serum albumin [15] was 3.41 nM; with cynomolgus serum albumin [16] it was 6.74 nM.

B11: P3A1 dimer without tag (VNAR)
chain: TRVDQTPRTATKETGESLTINCVLTDTSYGLYSTSWFRKNPGTTDWERMSIGGRYVESVNKGAKSFSLRIKDLTVADSATYYCKAREARHPWLRQWYDGAGTVLTVNGGGGSGGGGSGGGGSGGGGSGGGGSTRVDQTPRTATKETGESLTINCVLTDTSYGLYSTSWFRKNPGTTDWERMSIGGRYVESVNKGAKSFSLRIKDLTVADSATYYCKAREARHPWLRQWYDGAGTVLTVN
notes: also called P3A1 dimer No tag
In assay [1], B11 showed a Kd of 0.36 nM, an off-rate constant (koff) of 0.000598 s⁻¹ and a kon of 1.67e+06 M⁻¹ s⁻¹. In addition, in assay [2], the binding result was “no binding”.
